For test [1], the target named is T1, human TMEM106B (human, UniProt Q9NUM4 2-274).
T1 construct: full-length, transiently expressed on HEK293 cells, or natively expressed on HeLa, U251 and A549 cells (the cell is named under assay); also the source of the Pepscan peptides; also called huTMEM106B; huTMEM
As to the kind of experiment: FACS HEK+huTMEM 1.0 ug/ml.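 Note: binding of purified mouse IgG antibodies to HEK293 cells transiently expressing human TMEM106B, read by flow cytometry as median fluorescence intensity of live, propidium iodide-negative cells.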
Method: (§1) Purified anti-TMEM106B antibodies were evaluated for their binding affinity to various TMEM106B-expressing cell lines including HEK293 transiently transfected with human/cyno/mouse TMEM106B, as well as HeLa cells and A549 cells. Antibodies tested for this experiment were mouse IgGs purified from hybridoma supernatant. Affinity binding to cells was determined as follows. Briefly, 1×10\hat{ }5 cells were aliquoted per well in 96-well round bottom plates and incubated with 50 μL of purified anti-TMEM106B antibody at various concentrations (10× dilutions starting at 10 μg/ml) in FACS buffer (PBS+2% FBS+1 mM EDTA). […] Sorting was performed on a iQue (Intellicyt), with sort gates drawn to exclude dead (propidium iodide+) cells. Binding data was analyzed using median fluorescent intensity (MFI) and graphed in Prism. Values presented are MFI.

Test [2] concerns the target T1, human TMEM106B. Description: FACS A549 10 ug/ml.
Method: as §1
The target in test [3] is T1, human TMEM106B. As to the kind of experiment: FACS A549.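 Note: flow cytometry of cells incubated on ice for 1 h with hybridoma supernatant or purified antibody at 10 µg/mL, dead propidium iodide-positive cells gated out.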
Test [4] has as its target T1, human TMEM106B. Description: FACS HeLa.
Method: (§2) All cells were cultured in either T75 or T150 flasks. […] The enzyme was quenched by addition of fresh media, and the cells were then distributed into 96-well plates for FACS analysis.
(§3) FACS analysis was performed as follows. Each cell type was aliquoted in 96-well round bottom plates (2×10^5 cells per well), washed once with FACS buffer (PBS+2% FBS+1 mM EDTA), and incubated with 50 μL of hybridoma supernatant or purified antibody (10 μg/ml in FACS buffer) on ice for 1 hour. […] Following this secondary incubation, the cells were again washed 2× with ice-cold FACS buffer and resuspended in a final volume of 50 μL of FACS buffer+0.25 μl/well propidium iodide (Fisher Scientific #4BDB556463). Analysis was performed on a FACSCanto system (BD Biosciences) or iQue (Intellicyt), with sort gates drawn to exclude dead (i.e., propidium iodide positive) cells.
The target in test [5] is T1, human TMEM106B. As to the kind of experiment: FACS HEK+huTMEM 0.1 ug/ml (2nd column so headed).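 Note: flow cytometry binding of purified anti-TMEM106B mouse IgG to HEK293 cells transiently transfected with TMEM106B, read as median fluorescence intensity on live (propidium iodide-negative) cells.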
Method: as §1
A further test concerns the target T2, mouse TMEM106B (mouse, UniProt Q80X71 2-275).
T2 construct: transiently expressed on HEK293 cells, or native on mouse Neuro2a cells; also called moTMEM106B; murine TMEM106B
As to the kind of experiment: FACS Neuro2a.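 Note: flow cytometry of antibody binding to cells: hybridoma supernatant or purified antibody at 10 µg/ml, 1 h on ice, secondary detection, propidium iodide–positive dead cells gated out.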

Test [6] concerns the target T1, human TMEM106B. Description: FACS A549 1 ug/ml.
Method: as §1
The target in test [7] is T1, human TMEM106B. As to the kind of experiment: FACS HEK+huTMEM 10 ug/ml.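 Note: flow cytometric binding of purified mouse IgG antibodies to HEK293 cells transiently expressing human TMEM106B, read as median fluorescence intensity on live cells with propidium iodide-positive cells excluded.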
Test [8] deals with T1, human TMEM106B. Description: FACS U251.
Method: as §2, §3
The target of test [9] is T1, human TMEM106B. Description: FACS HEK+huTMEM 0.1 ug/ml.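 Note: flow cytometry binding of purified mouse IgG antibodies to HEK293 cells transiently expressing TMEM106B, read as median fluorescence intensity on live cells (propidium iodide negative gating).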
Test [10] has as its target T3, GST Fusion human TMEM106B ECD (Truncated) (human).
T3 construct: also called GST-TMEM106B-truncated protein; GST-TMEM106B (truncated)
As to the kind of experiment: SPR array; SPR kinetics, Table 5, first of two listed runs; weak binder.
Method: (§4) Binding kinetic characterization of the purified antibodies was performed by Carterra using a proprietary array SPR instrument (MX-96) as follows. Briefly, antibodies were prepared by diluting to 5 μg/ml in 10 mM Acetate, pH 4.5 (Carterra), at 150 μL/well and then made an additional dilution at 1:10 from there by titrating 11 μL into 100 μL. […] The chip was activated with 18 mM EDC (Sigma Bioxtra) and 4.5 mM S—NHS (Thermo Fisher) diluted in 100 mM MES, pH 5.5, for 7 minutes, and then antibodies were coupled for 10 minutes at 45 μL/minute. After coupling, the chip was returned to the MX-96 and quenched for 7 minutes using 1 M Ethanolamine pH 8.5 (Carterra).
(§5) Printed antibodies were profiled for their ability to bind GST-TMEM106B (truncated) protein (described above). Briefly, GST-TMEM106B (truncated) antigen was diluted to 18 μg/ml (500 nM of 36 kDa fusion protein) by mixing 2.7 μL of 2.0 mg/ml antigen into 298 μL Running buffer (HBS-EP+, Teknova with 1 mg/ml BSA, Sigma), and titrated 50 μl into 200 μl for 5-fold serial dilutions. […] Duplicate measurements for each anti-TMEM106B antibody were taken to ensure reproducibility.

The target of test [11] is T3, GST Fusion human TMEM106B ECD …. As to the kind of experiment: SPR array; SPR kinetics, Table 5, second of two listed runs (KD 2.90E-08 M). A general note: In SPR one partner is held on a chip, and binding of the other changes the refractive index at the surface.
Method: as §4, §5
The target is the same in test [12]. As to the kind of experiment: SPR array; SPR kinetics, Table 5, first of two listed runs (KD 4.70E-07 M).
Method: as §4, §5
For test [13] the target is unchanged. As to the kind of experiment: SPR array; SPR kinetics, Table 5, second of two listed runs.
Method: as §4
Printed antibodies were profiled for their ability to bind GST-TMEM106B (truncated) protein (described above). Briefly, GST-TMEM106B (truncated) antigen was diluted to 18 μg/ml (500 nM of 36 kDa fusion protein) by mixing 2.7 μL of 2.0 mg/ml antigen into 298 μL Running buffer (HBS-EP+, Teknova with 1 mg/ml BSA, Sigma), and titrated 50 μl into 200 μl for 5-fold serial dilutions. In addition, binding to GST (Pierce) was assayed under the same conditions to determine the extent of any non-specific binding of the anti-TMEM106B antibodies to GST portion of the TMEM106B-GST fusion protein. Duplicate measurements for each anti-TMEM106B antibody were taken to ensure reproducibility.
Test [14] has the same target. As to the kind of experiment: SPR array; SPR kinetics, Table 5, first of two listed runs.
Method: as §4, §5
Test [15] has the same target. As to the kind of experiment: SPR array.
Method: as §4, §5

Method for mouse TMEM106B: as §2, §3

B1: TM-44 (antibody, V domains shown)
VH: EVQLVESGGGLVKPGGSLKLSCAASGFTFSDYGMHWVRQAPEKGLEWVAYISSGSSTIYYADTVKGRFTISRDNAKNTLFLQMTSLRSEDTAMYYCARNYGSPYAMDYWGQGTSVTVSS
VL: not shown
notes: mouse IgG (hybridoma)
B1: the MFI was determined as 337 MFI with human TMEM106B [1]; 466 MFI in the test with human TMEM106B [2]; 392 MFI with human TMEM106B [3]; 168 MFI with human TMEM106B [4]; 300 MFI with human TMEM106B [5]; 202 MFI with mouse TMEM106B. For the same molecule, the MFI was determined as 404 MFI with human TMEM106B [6], 512 MFI with human TMEM106B [7], 522 MFI with human TMEM106B [8] and 309 MFI with human TMEM106B [9].

B2: TM-52 (antibody, V domains shown)
VH: QVQLQQPGAELVKPGASVKLSCKASGYTFTNYWMHWVKQRPGQGLDWIGNIDPSDSETHYNQKFKDKATLTVDKVSSTAYMQLSSLTSEDSAVYYCARRGYYGRSPFAYWGQGTLVTVSA
VL: ENVLTQSPAIMSASPGEKVTMTCSASSSVSYMHWYQQKSNTSPKLWIYDTSKLASGVPGRFSGSGSGNSYSLTISSAEAEDVATYYCFQGSGYPLTFGAGTKLELK
notes: mouse IgG (hybridoma)
As to B2, the MFI with human TMEM106B [1] turned out to be 8200 MFI; in the test with human TMEM106B [2], 443 MFI; with human TMEM106B [3], 987 MFI; in the test with human TMEM106B [4], 227 MFI; in the test with human TMEM106B [5], 451 MFI; with mouse TMEM106B it was 210 MFI. In addition, the MFI with human TMEM106B [6] came to 401 MFI; with human TMEM106B [7] it was 7020 MFI; with human TMEM106B [8], 341 MFI; in the test with human TMEM106B [9] it was 1940 MFI.

B3: TM-49 (antibody, V domains shown)
VH: QVQLQQPGAELVRPGSSVKLSCKASGYTFTRFWMHWVKQRPIQGLEWIGNIDPSDSQTHYNQKFKDKATLTVDKSSSTAYMQLSSLTSEDSAVYYCARLITVDYAMDYWGQGTSVTVSS
VL: QIVLTQSPAIMSASPGEKVTISCSASSSVSYMYWYQQKPGSSPKPWIHRTSNLASGVPVRFSGSGSGTSYSLTISSMEAEDAATYYCQQYHSYPPTFGAGTKLELK
notes: mouse IgG (hybridoma)
B3: the MFI in the test with human TMEM106B [1] turned out to be 15700 MFI; in the test with human TMEM106B [2], 613 MFI; with human TMEM106B [3], 924 MFI; in the test with human TMEM106B [4], 187 MFI; in the test with human TMEM106B [5], 756 MFI; with mouse TMEM106B, 291 MFI. In addition, the MFI with human TMEM106B [6] amounted to 473 MFI; with human TMEM106B [7] it was 16500 MFI; with human TMEM106B [8], 434 MFI; in the test with human TMEM106B [9] it was 3030 MFI.

B4: TM-48 (antibody, V domains shown)
VH: QVQLQQSGPELVKPGASVKLSCKASGYTFTSYDINWVKQRPGQGLEWIGWIYPRDGNTQYIEKLKGKATLTVDTSSSTAYMELHSLTSEDSAVYFCARWIFYAMDYWGQGTSVTVSS
VL: DVLMTQTPLSLPVSLGNQASISCRSSQSIVHGNGNTYLEWYLQKPGQSPKLLIYKVSNRFSGVPDRFSGSGSGTDFTLKISRVEAEDLGVYYCFQGSHLPYTFGGGTKLEIK
Regarding B4, the MFI was found to be 39900 MFI with human TMEM106B [1]; 2450 MFI in the test with human TMEM106B [2]; 677 MFI with human TMEM106B [3]; 219 MFI with human TMEM106B [4]; 4050 MFI in the test with human TMEM106B [5]; 292 MFI in the test with mouse TMEM106B. The MFI in the test with human TMEM106B [6] is 1580 MFI; in the test with human TMEM106B [7] it was 38200 MFI; with human TMEM106B [8] it was 346 MFI; in the test with human TMEM106B [9] it was 21600 MFI.

B5: TM-45 (antibody, V domains shown)
VH: QVQLQQSGAELAKPGASVKLSCKASGYTFTNYWMHWVKKRPGQGLEWIGYINPSSGYTKYNQKFKDKATLTADKSSNTAYMQLSSLTYEDSAVYYCTREGGSISDWYFDVWGTGTTVTVSS
VL: DIVMTQAAPSLPVTPGESVSISCRSSKSLLHSNGNTYLYWFLQRPGQSPQLLIYRMSNLASGVPDRFSGSGSGTAFTLRISRVEAEDVGVYYCMQHLEYPYTFGGGTKLEIK
In the case of B5, the MFI with human TMEM106B [1] worked out at 57600 MFI; with human TMEM106B [2] it was 3240 MFI; with human TMEM106B [3], 819 MFI; in the test with human TMEM106B [4] it was 191 MFI; with human TMEM106B [5], 2500 MFI; in the test with mouse TMEM106B it was 187 MFI. In addition, the MFI turned out to be 1860 MFI in the test with human TMEM106B [6], 58100 MFI with human TMEM106B [7], 517 MFI with human TMEM106B [8] and 21300 MFI with human TMEM106B [9].

B6: TM-50 (antibody, V domains shown)
VH: QVQLKESGPVLVAPSQSLSITCTVSGFSLTNYGVHWVRQPPGKGLEWLGVIWAGGNTNYNSALMSRLSISKDNSKSQVFLKMNSLQTDDTAMYYCAKEAKLLRSYAMDYWGQGTLVTVSA
VL: DVQMTQTTSSLSASLGDRVTISCRASQDINNYLYWYQQKPDGTVKLLIYYTSMLHSGVPSRFSGSGSGTDYSLTISNLEQEDIATYFCQQGSTLMYTFGGGTKLEIK
notes: mouse IgG (hybridoma)
For the molecule B6, the MFI in the test with human TMEM106B [1] stood at 314 MFI; with human TMEM106B [2] it was 445 MFI; with human TMEM106B [3] it was 580 MFI; with human TMEM106B [4] it was 159 MFI; in the test with human TMEM106B [5], 294 MFI; with mouse TMEM106B, 257 MFI. In addition, the MFI was 381 MFI in the test with human TMEM106B [6], 396 MFI in the test with human TMEM106B [7], 260 MFI in the test with human TMEM106B [8] and 305 MFI with human TMEM106B [9].

B7: TM-16 (antibody, V domains shown)
VH: EVQLQQSGAELVRPGASVKLSCTTSGFNIKDYYMHWVKQRTEQGLEWIGRIDPEDGETKYAPEFQGKATITSDTSSNTAFLQLSSLTSEDTAVYYCASSQPFTYWGQGTLVTVSA
VL: QIVLTQSPAIMSASPGEKLTMTCSASSSLNYMYWYQQKPGSSPRLLIYDTSNLASGVPVRFSGSGSGTSYSLTISRMEAEDGATYYCQQWTSFPPTFGAGTKLELK
Usually Kd stands for the free concentration of one partner at which half of the binding sites on the other are occupied at equilibrium, for simple one-to-one binding. In general, kon refers to the rate constant with which the complex forms. Read a low kon as slower complex formation. Broadly, the koff is the first-order rate constant of dissociation. With B7, the Kd was determined as 470 nM in test [10] and 29 nM in [15]. The MFI was 2140 MFI with human TMEM106B [1]; 557 MFI with human TMEM106B [2]; 605 MFI in the test with human TMEM106B [3]; 548 MFI in the test with human TMEM106B [4]; 351 MFI in the test with human TMEM106B [5]; 392 MFI with mouse TMEM106B. The MFI came out at 409 MFI in the test with human TMEM106B [6], 5980 MFI with human TMEM106B [7], 292 MFI with human TMEM106B [8] and 680 MFI in the test with human TMEM106B [9]. Further, the results for the kon in [11] and in test [12] were 33000 M⁻¹ s⁻¹ and 6500 M⁻¹ s⁻¹, respectively. The results for the koff in test [13] and in test [14] were 0.00095 s⁻¹ and 0.0031 s⁻¹, respectively.

These data come from patent publication US20200339680A1 (Alector, published 2020).
